What all share (assay): ELISA
Background: In an ELISA, binding on a coated surface is turned into a signal by an enzyme label.

One assay addresses SARS-CoV-1 spike protein (SARS-CoV-1, UniProt P59594 14-1195).
The target in the next assay is T1, HCoV229E spike protein (HCoV-229E, UniProt P15423 17-1103).
T1 chain: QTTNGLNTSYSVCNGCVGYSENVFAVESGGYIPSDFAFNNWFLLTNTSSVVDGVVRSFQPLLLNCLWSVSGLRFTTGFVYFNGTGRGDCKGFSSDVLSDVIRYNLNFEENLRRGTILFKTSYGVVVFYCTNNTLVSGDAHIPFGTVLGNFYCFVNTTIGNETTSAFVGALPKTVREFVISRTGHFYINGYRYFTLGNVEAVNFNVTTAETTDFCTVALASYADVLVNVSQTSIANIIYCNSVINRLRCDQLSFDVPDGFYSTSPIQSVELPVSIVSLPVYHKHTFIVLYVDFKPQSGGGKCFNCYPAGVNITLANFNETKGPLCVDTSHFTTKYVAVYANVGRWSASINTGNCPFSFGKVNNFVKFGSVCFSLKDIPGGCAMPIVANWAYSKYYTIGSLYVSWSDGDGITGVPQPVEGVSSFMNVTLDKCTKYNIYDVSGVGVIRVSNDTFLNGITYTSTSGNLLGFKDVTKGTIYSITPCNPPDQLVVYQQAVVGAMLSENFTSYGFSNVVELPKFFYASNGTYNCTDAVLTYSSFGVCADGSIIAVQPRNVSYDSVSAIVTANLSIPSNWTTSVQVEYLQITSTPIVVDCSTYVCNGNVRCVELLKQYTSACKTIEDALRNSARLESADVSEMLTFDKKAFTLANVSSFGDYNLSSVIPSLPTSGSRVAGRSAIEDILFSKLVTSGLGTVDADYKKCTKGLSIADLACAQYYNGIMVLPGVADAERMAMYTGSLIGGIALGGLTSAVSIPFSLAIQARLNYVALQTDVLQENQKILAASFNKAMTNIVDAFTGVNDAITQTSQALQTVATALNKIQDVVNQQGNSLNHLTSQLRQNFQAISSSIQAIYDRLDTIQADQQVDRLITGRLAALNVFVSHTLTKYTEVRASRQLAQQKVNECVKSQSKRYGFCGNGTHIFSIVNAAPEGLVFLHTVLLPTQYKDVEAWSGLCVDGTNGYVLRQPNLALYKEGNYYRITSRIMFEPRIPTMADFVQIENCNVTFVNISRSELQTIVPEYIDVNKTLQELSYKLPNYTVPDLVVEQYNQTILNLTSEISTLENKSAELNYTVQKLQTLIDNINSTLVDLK

In assay [1] the target is SARS-CoV-2 prefusion stabilized trimer protein (WIV02 isolate spike protein) (UniProt P0DTC2 14-1213).
Another assay addresses T2, MERS spike protein (MERS-CoV, UniProt K9N5Q8 18-1296).
T2 chain: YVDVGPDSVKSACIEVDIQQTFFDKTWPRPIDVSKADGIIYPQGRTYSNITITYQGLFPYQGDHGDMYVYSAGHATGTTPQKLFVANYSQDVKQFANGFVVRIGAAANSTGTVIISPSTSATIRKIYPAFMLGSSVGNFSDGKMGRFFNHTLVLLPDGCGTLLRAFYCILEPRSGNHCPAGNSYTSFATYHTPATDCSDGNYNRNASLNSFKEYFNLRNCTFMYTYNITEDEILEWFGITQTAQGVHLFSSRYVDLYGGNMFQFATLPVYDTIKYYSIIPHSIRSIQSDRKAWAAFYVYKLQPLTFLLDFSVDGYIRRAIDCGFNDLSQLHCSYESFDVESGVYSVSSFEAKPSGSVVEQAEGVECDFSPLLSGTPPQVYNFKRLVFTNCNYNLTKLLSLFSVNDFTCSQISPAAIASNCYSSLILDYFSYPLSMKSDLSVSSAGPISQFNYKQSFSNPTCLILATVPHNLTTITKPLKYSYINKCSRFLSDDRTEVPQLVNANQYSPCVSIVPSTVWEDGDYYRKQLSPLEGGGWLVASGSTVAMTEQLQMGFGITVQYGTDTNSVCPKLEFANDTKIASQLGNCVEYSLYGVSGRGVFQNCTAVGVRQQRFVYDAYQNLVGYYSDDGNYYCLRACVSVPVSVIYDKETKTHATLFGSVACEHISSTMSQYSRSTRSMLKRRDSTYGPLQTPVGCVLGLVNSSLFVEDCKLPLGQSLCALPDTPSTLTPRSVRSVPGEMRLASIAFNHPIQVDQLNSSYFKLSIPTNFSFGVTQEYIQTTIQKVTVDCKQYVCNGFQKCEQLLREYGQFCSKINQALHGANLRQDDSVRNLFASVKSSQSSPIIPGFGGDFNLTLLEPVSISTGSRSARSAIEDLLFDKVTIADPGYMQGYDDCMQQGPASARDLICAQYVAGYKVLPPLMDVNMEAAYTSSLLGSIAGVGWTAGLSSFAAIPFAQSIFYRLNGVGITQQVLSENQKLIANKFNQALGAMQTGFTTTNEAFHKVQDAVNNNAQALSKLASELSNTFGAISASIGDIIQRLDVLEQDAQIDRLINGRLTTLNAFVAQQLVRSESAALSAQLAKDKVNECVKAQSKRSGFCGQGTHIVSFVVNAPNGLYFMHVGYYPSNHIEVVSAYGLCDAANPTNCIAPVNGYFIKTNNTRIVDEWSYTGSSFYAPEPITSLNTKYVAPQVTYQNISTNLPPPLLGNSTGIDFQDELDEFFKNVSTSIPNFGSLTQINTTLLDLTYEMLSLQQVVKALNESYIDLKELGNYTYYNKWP

B1: 7-D7-A (antibody, V domains shown)
VH: QVQLKESGPGLVAPSQSLSITCTVSGFSLTSYAISWVRQPPGKGLEWLGVIWPGGGTNYNSALKSRLSISKDNSKSQVFLKMNSLQTDDTAKYYCARTGYYFDYWGQGTTLTVSS
VL: QLILTQSPAIMSASPGEKVTMTCSASLSVNYMYWFQQKPGTSPKRWIHDTSKLASGVPARFSGSGSGTSYSLTISSMEAEDAATYYCQQWSSNPPMYTFGGGTKLEIK
Broadly, the EC50 is the concentration that produces a half-maximal response. As to B1, the EC50 with SARS-CoV-1 spike protein is 3.05 nM; with HCoV229E spike protein it was 0.13 nM; in assay [1] it was 0.72 nM; with MERS spike protein, 0.9 nM.

B2: 8-A17-A (antibody, V domains shown)
VH: QVQLKESGPGLVAPSQSLSITCTVSGFSLTSYAISWVRQPPGKGLEWLGVVWPGGGTNYNSALKSRLSINKDNSKSQVFLKMNSLQTDDTGRYYCARTGYHFDYWGQGTTLTVSS
VL: QIVLTQSPAIMSASPGEKVTMTCSVSSSVSYMHWYQQKSGTSPKRWIYDTSKLASGVPARFSGSGSGTSYSLTISSMEAEDAATYYCQQWSSNPPMYTFGGGTKLEIK
Turning to B2, the EC50 with SARS-CoV-1 spike protein was 0.36 nM; with HCoV229E spike protein, 0.01 nM; in assay [1], 0.27 nM; in the assay with MERS spike protein, 0.49 nM.

B3: 2-G20-A (antibody, V domains shown)
VH: EVQLQQSGPELVKPGASVKMSCKASGYTFPSYVLHWVKQKPGQGLEWIGYIYPYNDGTNYNEKFKGKATLTSDKSSSTAYMELSSLTSEDSAVYYCARGDYGDSAWFPYWGQGTLVTVSA
VL: DIVLTQSPASLAVSLGQRATISCRASKSVSTSGYSYMHWYQQKPGQPPKLLIYLASNLKSGVPARFSGGGSGTDFTLNIHPVEEEDAATYYCQLSRELPWTFGGGTKLEIK
Consider B3, for which the concentration giving a half-maximal response (EC50) in the assay with SARS-CoV-1 spike protein is 1.44 nM; with HCoV229E spike protein, 0.1 nM; in assay [1], 1.83 nM; in the assay with MERS spike protein it was 8.71 nM.

B4: 6-O12-A (antibody, V domains shown)
VH: QVQLQQPGTELVKPGASVKLSCKASGYTFTSYWMHWVKQRPGQGLEWIGNINPSNGGTNYNEKFRSKATLTVDKSSSTAYMQLSSLTSEDSAVYYCARLGWFLPLGSWGQGTTLTVSS
VL: QIVLTQSPAIMSASLGEVITLTCSASSSVSYMHWYQQKSGTSPKLLIYSTSNLASGVPSRFSGSGSGTFYSLTISSVEAEDAADYYCHQWSGYMYTFGGGTKLEIK
Consider B4, for which the EC50 came out at 0.24 nM with SARS-CoV-1 spike protein, 0.15 nM in the assay with HCoV229E spike protein, 0.39 nM in assay [1] and 0.25 nM in the assay with MERS spike protein.

B5: 9-F6-A (antibody, V domains shown)
VH: EVQLQQSGPELVKPGASVKMSCKASGYTFTSYIMHWVKQKPGQGLEWIGYILPYNDGTKYNEKFKGKATLTSDKSSSTAYMELRSLTSEDSAVYYCARWGYSNFLDSWGQGTTLTVSS
VL: DIQMTQTTSSLSASLGDRVTISCRASQDINNYLNWYQQKPDGTVKLLIYYTSRLHSGVPSRFSGSGSGTDYSLTIRNLEQEDIATYFCQQGNTLPPTFGGGTKLEIK
B5: the 50% effective concentration (EC50) in the assay with SARS-CoV-1 spike protein worked out at 0.46 nM; with HCoV229E spike protein, 0.03 nM; in assay [1], 0.59 nM; with MERS spike protein it was 1.67 nM.

B6: 1-B11-A (antibody, V domains shown)
VH: QVQLQQSGPELVKPGASVKISCKASGYTFTDHYINWVKQRPGQGLEWIGWIFPGSGSTYYNEQFKGKATLTVDKSSNTAYMLLSSLTSEDSAVYFCARSGGLRLGFAYWGQGTLVTVSA
VL: DIQMTQTTSSLSASLGDRVTISCRASQDISNYLNWYQQKPDGTVKLLIYYTSRLHSGVPSRFSGSGSGTDYSLTISNLEQEDISTYFCQQVNTLPYTFGGGTKLEIK
As to B6, the results for the 50% effective concentration (EC50) (in the assay with SARS-CoV-1 spike protein; in assay [1]; with MERS spike protein) were 0.55 nM, 10.7 nM and 0.63 nM, respectively.

B7: 1-L10-A (antibody, V domains shown)
VH: EVKLEESGGGLVQPGGSMKLSCVASGFTFNNYWMNWVRQSPEKGLEWVAQMRLKSDNYATHYAESVKGRFTISRDDSKSSVYLQMNNLRAEDTGIYYCIEGYWTYWGQGTLVTVSA
VL: QIVLTQSPAIMSASLGERVTMTCTASSSVSSSYLHWYQQKPGSSPKLWIYSTSNLASGVPARFSGNGSGTSYSLTISSMEAEDAATYYCLQYHRSPPYTFGGGTKLEIK
As to B7, the EC50 came out at 5.27 nM with SARS-CoV-1 spike protein, 0.12 nM in the assay with HCoV229E spike protein, 111 nM in assay [1] and 3.47 nM with MERS spike protein.
